# Assay results from patent publication US20250188133A1, “CHIMERIC BACTERIOCINS AND METHOD FOR THE CONTROL OF PSEUDOMONAS” (priority 2022, published 2025).
# B1: S5-Pflu095: chimeric bacteriocin SEQ ID NO: 9: pyocin S5 first segment fused to P. fluorescens Pflu095 killing domain (protein)
# chain: MSNDNEVPGSMVIVAQGPDDQYAYEVPPIDSAAVAGNMFGDLIQREIYLQKNIYYPVRSIFEQGTKEKKEINKKVSDQVDGLLKQITQGKREATRQERVDVMSAVLHKMESDLEGYKKTFTKGPFIDYEKQSSLSIYEAWVKIWEKNSWEERKKYPFQQLVRDELERAVAYYKQDSLSEAVKVLRQELNKQKALKEKEDLSQLERDYRTRKANLEMKVQSELDQAGSALPPLVSPTPEQWLERATRLVTQAIADKKQLQTTNNTLIKNSPTPLEKQKAIYNGELLVDEIASLQARLVKLNAETTRRRTEKDKVRTEVVDIEAAIKFTSDFYAEAGVRFGDSASKLASDLADSAQGKKIRSADEAFKAFDKYKNELDKKFSVKDRAAAAKYIDSIDYEAIGKAATKFSKGLGYVGPVIDAKDSIIEFINSMESGDWKPFFLKLESIALGLAATAFVGIAFGFIATTPMGILAFAFIVAATGAAIDDNFAEKLNKFVSSL
# modifications: S5-Pflu095
# Columns and labels:
# Format in all cases: cell-based
# P. aeruginosa 13-18499 = experiment: agar disc-diffusion assay; conditions: strain 13-18499; 0.3, 3 and 30 μg of protein spotted on discs on CAA agar lawn, overnight
# In short: (§1)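 Bacteria grown overnight in CAA are normalized to OD595=1.0, diluted 100-fold and spread evenly on CAA agar plates. Paper discs carry 0.3-30 μg of chimeric pyocin, and zones of inhibition are examined after an overnight 37° C incubation.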
# P. aeruginosa A19 = experiment: agar disc-diffusion assay; conditions: strain A19; 0.3, 3 and 30 μg of protein spotted on discs on CAA agar lawn, overnight
# In short: as §1
# P. aeruginosa ATCC 19660 = experiment: agar disc-diffusion assay; conditions: strain ATCC 19660; 0.3, 3 and 30 μg of protein spotted on discs on CAA agar lawn, overnight
# In short: as §1
# P. aeruginosa ATCC 29260 = experiment: agar disc-diffusion assay; conditions: strain ATCC 29260; 0.3, 3 and 30 μg of protein spotted on discs on CAA agar lawn, overnight
# In short: as §1
# P. aeruginosa BI80 = experiment: agar disc-diffusion assay; conditions: strain BI80; 0.3, 3 and 30 μg of protein spotted on discs on CAA agar lawn, overnight
# In short: as §1
# P. aeruginosa BL77 = experiment: agar disc-diffusion assay; conditions: strain BL77; 0.3, 3 and 30 μg of protein spotted on discs on CAA agar lawn, overnight
# In short: as §1
# P. aeruginosa BR79 = experiment: agar disc-diffusion assay; conditions: strain BR79; 0.3, 3 and 30 μg of protein spotted on discs on CAA agar lawn, overnight
# In short: as §1
# [1] = tested on: P. aeruginosa Boston 41501 (ATCC 27853); experiment: agar disc-diffusion assay; conditions: strain Boston; 0.3, 3 and 30 μg of protein spotted on discs on CAA agar lawn, overnight
# In short: as §1
# P. aeruginosa Bu002 = experiment: agar disc-diffusion assay; conditions: strain Bu002; 0.3, 3 and 30 μg of protein spotted on discs on CAA agar lawn, overnight
# In short: as §1
# P. aeruginosa EY76 = experiment: agar disc-diffusion assay; conditions: strain EY76; 0.3, 3 and 30 μg of protein spotted on discs on CAA agar lawn, overnight
# In short: as §1
# P. aeruginosa HP1 = experiment: agar disc-diffusion assay; conditions: strain HP1; 0.3, 3 and 30 μg of protein spotted on discs on CAA agar lawn, overnight
# In short: as §1
# P. aeruginosa HP40 = experiment: agar disc-diffusion assay; conditions: strain HP40; 0.3, 3 and 30 μg of protein spotted on discs on CAA agar lawn, overnight
# In short: as §1
# P. aeruginosa HP41 = experiment: agar disc-diffusion assay; conditions: strain HP41; 0.3, 3 and 30 μg of protein spotted on discs on CAA agar lawn, overnight
# In short: as §1
# P. aeruginosa HP52 = experiment: agar disc-diffusion assay; conditions: strain HP52; 0.3, 3 and 30 μg of protein spotted on discs on CAA agar lawn, overnight
# In short: as §1
# P. aeruginosa HP6 = experiment: agar disc-diffusion assay; conditions: strain HP6; 0.3, 3 and 30 μg of protein spotted on discs on CAA agar lawn, overnight
# In short: as §1
# P. aeruginosa HP75 = experiment: agar disc-diffusion assay; conditions: strain HP75; 0.3, 3 and 30 μg of protein spotted on discs on CAA agar lawn, overnight
# In short: as §1
# P. aeruginosa HP7 = experiment: agar disc-diffusion assay; conditions: strain HP7; 0.3, 3 and 30 μg of protein spotted on discs on CAA agar lawn, overnight
# In short: as §1
# P. aeruginosa NCTC 13437 = experiment: agar disc-diffusion assay; conditions: strain NCTC 13437; 0.3, 3 and 30 μg of protein spotted on discs on CAA agar lawn, overnight
# In short: as §1
# P. aeruginosa NCTC 13921 = experiment: agar disc-diffusion assay; conditions: strain NCTC 13921; 0.3, 3 and 30 μg of protein spotted on discs on CAA agar lawn, overnight
# In short: as §1
# P. aeruginosa PA14 = experiment: agar disc-diffusion assay; conditions: strain PA14; 0.3, 3 and 30 μg of protein spotted on discs on CAA agar lawn, overnight
# In short: as §1
# P. aeruginosa PAO1 = experiment: agar disc-diffusion assay; conditions: strain PAO1; 0.3, 3 and 30 μg of protein spotted on discs on CAA agar lawn, overnight
# In short: as §1
# P. aeruginosa Pr335 = experiment: agar disc-diffusion assay; conditions: strain Pr335; 0.3, 3 and 30 μg of protein spotted on discs on CAA agar lawn, overnight
# In short: as §1
# P. aeruginosa UR78 = experiment: agar disc-diffusion assay; conditions: strain UR78; 0.3, 3 and 30 μg of protein spotted on discs on CAA agar lawn, overnight
# In short: as §1
# P. aeruginosa strains = experiment: agar disc-diffusion assay, panel of 25 strains
# In short: as §1
molecule,measurement,setting,value
B1,Activity in agar disc-diffusion assay,P. aeruginosa 13-18499,** (activity detected with 3 μg of protein)
same,Activity in agar disc-diffusion assay,P. aeruginosa A19,*** (activity detected with 0.3 μg of protein)
same,Activity in agar disc-diffusion assay,P. aeruginosa ATCC 19660,* (activity detected only with 30 μg of protein)
same,Activity in agar disc-diffusion assay,P. aeruginosa ATCC 29260,*** (activity detected with 0.3 μg of protein)
same,Activity in agar disc-diffusion assay,P. aeruginosa BI80,*** (activity detected with 0.3 μg of protein)
same,Activity in agar disc-diffusion assay,P. aeruginosa BL77,** (activity detected with 3 μg of protein)
same,Activity in agar disc-diffusion assay,P. aeruginosa BR79,** (activity detected with 3 μg of protein)
same,Activity in agar disc-diffusion assay,[1],*** (activity detected with 0.3 μg of protein)
same,Activity in agar disc-diffusion assay,P. aeruginosa Bu002,*** (activity detected with 0.3 μg of protein)
same,Activity in agar disc-diffusion assay,P. aeruginosa EY76,*** (activity detected with 0.3 μg of protein)
same,Activity in agar disc-diffusion assay,P. aeruginosa HP1,*** (activity detected with 0.3 μg of protein)
same,Activity in agar disc-diffusion assay,P. aeruginosa HP40,*** (activity detected with 0.3 μg of protein)
same,Activity in agar disc-diffusion assay,P. aeruginosa HP41,*** (activity detected with 0.3 μg of protein)
same,Activity in agar disc-diffusion assay,P. aeruginosa HP52,** (activity detected with 3 μg of protein)
same,Activity in agar disc-diffusion assay,P. aeruginosa HP6,*** (activity detected with 0.3 μg of protein)
same,Activity in agar disc-diffusion assay,P. aeruginosa HP75,* (activity detected only with 30 μg of protein)
same,Activity in agar disc-diffusion assay,P. aeruginosa HP7,*** (activity detected with 0.3 μg of protein)
same,Activity in agar disc-diffusion assay,P. aeruginosa NCTC 13437,* (activity detected only with 30 μg of protein)
same,Activity in agar disc-diffusion assay,P. aeruginosa NCTC 13921,*** (activity detected with 0.3 μg of protein)
same,Activity in agar disc-diffusion assay,P. aeruginosa PA14,** (activity detected with 3 μg of protein)
same,Activity in agar disc-diffusion assay,P. aeruginosa PAO1,*** (activity detected with 0.3 μg of protein)
same,Activity in agar disc-diffusion assay,P. aeruginosa Pr335,*** (activity detected with 0.3 μg of protein)
same,Activity in agar disc-diffusion assay,P. aeruginosa UR78,*** (activity detected with 0.3 μg of protein)
same,inhibition on lawns of S5 producer strains HP6 and HP7,"P. aeruginosa strains; clinical isolates HP6 and HP7, S5 gave turbid zones with 3 μg and 30 μg",significantly larger and clearer than those formed by S5
same,activity spectrum / profile in agar disc diffusion assay,"P. aeruginosa strains; panel of 25 P. aeruginosa strains, in words",broadened activity spectrum in comparison to pyocin S5
same,inhibition zones on lawns of S5-producing strains,"P. aeruginosa strains; six pyocin S5 and immunity gene-positive strains (PA14, PAO1, HP6, HP7, ATCC 19660, NCTC 13921)",formed inhibition zones on the lawns of all six S5-producing strains
